Here are results for twelve variants from FireProtDB.

What is called Tm is the temperature at the midpoint of the melting transition.

Sequences and labels used below:
B1: Guanyl-specific ribonuclease T1, P00651 (parent)
chain: MMYSKLLTLTTLLLPTALALPSLVERACDYTCGSNCYSSSDVSTAQAAGYQLHEDGETVGSNSYPHKYNNYEGFDFSVSSPYYEWPILSSGDVYSGGSPGADRVVFNENNQLAGVITHTGASGNNFVECT
B2: Aspartate aminotransferase, P00509 (parent)
chain: MFENITAAPADPILGLADLFRADERPGKINLGIGVYKDETGKTPVLTSVKKAEQYLLENETTKNYLGIDGIPEFGRCTQELLFGKGSALINDKRARTAQTPGGTGALRVAADFLAKNTSVKRVWVSNPSWPNHKSVFNSAGLEVREYAYYDAENHTLDFDALINSLNEAQAGDVVLFHGCCHNPTGIDPTLEQWQTLAQLSVEKGWLPLFDFAYQGFARGLEEDAEGLRAFAAMHKELIVASSYSKNFGLYNERVGACTLVAADSETVDRAFSQMKAAIRANYSNPPAHGASVVATILSNDALRAIWEQELTDMRQRIQRMRQLFVNTLQEKGANRDFSFIIKQNGMFSFSGLTKEQVLRLREEFGVYAVASGRVNVAGMTPDNMAPLCEAIVAVL
B3: SNARE-associated protein Snapin, O95295 (parent)
chain: MAGAGSAAVSGAGTPVAGPTGRDLFAEGLLEFLRPAVQQLDSHVHAVRESQVELREQIDNLATELCRINEDQKVALDLDPYVKKLLNARRRVVLVNNILQNAQERLRRLNHSVAKETARRRAMLDSGIYPPGSPGK
B4: S121F, Q2YD82 (parent)
chain: MDCAEGRAANLPCNHSTISGNEYVYWYRQIHSQGPQYIIHGLKNNETNEMASLIITEDRKSSTLILPHATLRDTAVYYCIVYDYGQNFVFGPGTRLSVLPYIQNPDPAVYQLRDSKSSDKSVCLFTDFDSQTNVSQSKDSDVYITDKTVLDMRSMDFKSNSAVAWSNKSDFACANAFNNSIIPEDTFFPSPESSCDVKLVEKSFETDTNLNFQNLSVIGFRILLLKVAGFNLLMTLRLWSS

The first series covers variants of B1. To be noted: Aspergillus oryzae (strain ATCC 42149 / RIB 40); pH 7; 25 °C; Urea; Fluorescence; MOPS 30 mM; structure 1RN1; whole UniProt chain shown.
In the case of MMYSKLLTLTTLLLPTALALPSLVERACDYTCGSNCYSSSDVSTAQAAGYQLHEDGETVGSNSYPHKYNNYEGFDFSVSSPYYAWPILSSGDVYSGGSPGADRVVFNENNQLAGVITHTGASGNNFVECT [E84A], the “ddG of mutation (higher = less stable)” value amounted to 3.77 kJ/mol, the denaturant m value worked out at 1.2 kcal/mol/M, the “denaturant midpoint (higher = more stable)” value was found to be 3.92 M and the unfolding free energy stood at 19.7 kJ/mol.

Still in this series, the particulars now being: Aspergillus oryzae (strain ATCC 42149 / RIB 40); pH 7; 48.6 °C; Thermal; Fluorescence; MOPS 30 mM; structure 1RN1; whole UniProt chain shown.
Turning to MMYSKLLTLTTLLLPTALALPSLVERACDYTCGSNCYSSSDVSTAQAAGYQLHEDGETVGSNSYPHKYNNYEGFDFSVSSPYYAWPILSSGDVYSGGSPGADRVVFNENNQLAGVITHTGASGNNFVECT [E84A], the “ddG of mutation (higher = less stable)” value was 3.26 kJ/mol.

Staying with this series, now noted: Aspergillus oryzae (strain ATCC 42149 / RIB 40); pH 7.4; 25 °C; Urea; Fluorescence; Sodium acetate 50 mM; reversible: yes; structure 1RN1; whole UniProt chain shown.
On to MMYSKLLTLTTLLLPTALALPSLVERACDYTCGSNCYSSSDVSTAQGAAYQLHEDGETVGSNSYPHKYNNYEGFDFSVSSPYYEWPILSSGDVYSGGSPGADRVVFNENNQLAGVITHTGASGNNFVECT [A47G G49A], for which the denaturant m value was determined as 1.37 kcal/mol/M, the “denaturant midpoint (higher = more stable)” value stood at 4.7 M and the unfolding free energy was 25.1 kJ/mol.

Staying with this series, now noted: Aspergillus oryzae (strain ATCC 42149 / RIB 40); pH 7; Thermal; Absorbance; Sodium cacodylate 10 mM; reversible: yes; structure 1RN1; whole UniProt chain shown.
For the variant MMYSKLLTLTTLLLPTALALPSLVERACDYTCGSNCYSSSDVSTAQAAGYQLHEDGETVGSNSYPHKYNNWEGFDFSVSSPYYEYPILSSGDVYSGGSPGADRVVFNENNQLAGVITHTGASGNNFVECT [Y71W W85Y], the Tm worked out at 53.1 °C and the “change of melting temperature, mutant - wild type (higher = more stable)” value (from here on “change of melting temperature, mutant”) is -4.5 °C.

Staying with this series, now noted: Aspergillus oryzae (strain ATCC 42149 / RIB 40); pH 5; 10 °C; GdnHCl; CD; Na acetate 0.1 M; structure 1RN1; whole UniProt chain shown.
Turning to MMYSKLLTLTTLLLPTALALPSLVERACDYTCGSNCYSSSDVSTAQAAGYQLHEDGETVGSNSYPHKYNNYEGFDFSVSGNYYEWPILSSGDVYSGGSPGADRVVFNENNQLAGVITHTGASGNNFVECT [S80G P81N], the denaturant m value is 2.8 kcal/mol/M and the unfolding free energy was 46.9 kJ/mol.

The series is the same for the next values; noted with them: Aspergillus oryzae (strain ATCC 42149 / RIB 40); pH 8; 15 °C; Urea; Absorbance; Tris-HCl 0.1 M; NaCl 2.8 M; structure 1RN1; whole UniProt chain shown.
Regarding MMYSKLLTLTTLLLPTALALPSLVERACDYTCGSNCYSSSDVSTAQAAGYQLHEDGETVGSNSYPHKYNNYEGFDFSVSGNYYEWPILSSGDVYSGGSPGADRVVFNENNQLAGVITHTGASGNNFVECT [S80G P81N], the unfolding free energy was 25 kJ/mol.

Still in this series, the particulars now being: Aspergillus oryzae (strain ATCC 42149 / RIB 40); pH 8; 15 °C; Urea; CD; Tris-HCl 0.1 M; NaCl 2.5 M; structure 1RN1; whole UniProt chain shown.
In the case of MMYSKLLTLTTLLLPTALALPSLVERACDYTCGSNCYSSSDVSTAQAAGYQLHEDGETVGSNSYPHKYNNYEGFDFSVSGNYYEWPILSSGDVYSGGSPGADRVVFNENNQLAGVITHTGASGNNFVECT [S80G P81N], the unfolding free energy came out at 10.2 kJ/mol.

In the next series the parent is B2. To be noted: Escherichia coli (strain K12); pH 7.5; 25 °C; Urea; enzyme activity; potassium phosphate 20 mM; structure 1AMQ; whole UniProt chain shown.
Regarding MFENITAAPADPILGLADLFRADERPGKINLGIGVYKDETGKTPVLTSVKKAEQYLLENETTKNYLGIDGIPEFGRCTQELLFGKGSALINDKRARTAQTPGGTGALRVAADFLAKNTSVKRVWVSNPSWPNHKSVFNSAGLEVREYAYYDAENHTLDFDALINSLNEAQAGDVVLFHGYCHNPTGIDPTLEQWQTLAQLSVEKGWLPLFDFAYQGFARGLEEDAEGLRAFAAMHKELIVASSYSKNFGLYNERVGACTLVAADSETVDRAFSQMKAAIRANYSNPPAHGASVVATILSNDALRAIWEQELTDMRQRIQRMRQLFVNTLQEKGANRDFSFIIKQNGMFSFSGLTKEQVLRLREEFGVYAVASGRVNVAGMTPDNMAPLCEAIVAVL [C180Y], the unfolding free energy turned out to be 32.2 kJ/mol.

Regarding MFENITAAPADPILGLADLFRADERPGKINLGIGVYKDETGKTPVLTSVKKAEQYLLENETTKNYLGIDGIPEFGRCTQELLFGKGSALINDKRARTAQTPGGTGALRVAADFLAKNTSVKRVWVSNPSWPNHKSVFNSAGLEVREYAYYDAENHTLDFDALINSLNEAQAGDVVLFHGFCHNPTGIDPTLEQWQTLAQLSVEKGWLPLFDFAYQGFARGLEEDAEGLRAFAAMHKELIVASSYSKNFGLYNERVGACTLVAADSETVDRAFSQMKAAIRANYSNPPAHGASVVATILSNDALRAIWEQELTDMRQRIQRMRQLFVNTLQEKGANRDFSFIIKQNGMFSFSGLTKEQVLRLREEFGVYAVASGRVNVAGMTPDNMAPLCEAIVAVL [C180F], the unfolding free energy came out at 35.1 kJ/mol.

For the variant MFENITAAPADPILGLADLFRADERPGKINLGIGVYKDETGKTPVLTSVKKAEQYLLENETTKNYLGIDGIPEFGRCTQELLFGKGSALINDKRARTAQTPGGTGALRVAADFLAKNTSVKRVWVSNPSWPNHKSVFNSAGLEVREYAYYDAENHTLDFDALINSLNEAQAGDVVLFHGSCHNPTGIDPTLEQWQTLAQLSVEKGWLPLFDFAYQGFARGLEEDAEGLRAFAAMHKELIVASSYSKNFGLYNERVGACTLVAADSETVDRAFSQMKAAIRANYSNPPAHGASVVATILSNDALRAIWEQELTDMRQRIQRMRQLFVNTLQEKGANRDFSFIIKQNGMFSFSGLTKEQVLRLREEFGVYAVASGRVNVAGMTPDNMAPLCEAIVAVL [C180S], the unfolding free energy came to 33.9 kJ/mol.

For MFENITAAPADPILGLADLFRADERPGKINLGIGVYKDETGKTPVLTSVKKAEQYLLENETTKNYLGIDGIPEFGRCTQELLFGKGSALINDKRARTAQTPGGTGALRVAADFLAKNTSVKRVWVSNPSWPNHKSVFNSAGLEVREYAYYDAENHTLDFDALINSLNEAQAGDVVLFHGWCHNPTGIDPTLEQWQTLAQLSVEKGWLPLFDFAYQGFARGLEEDAEGLRAFAAMHKELIVASSYSKNFGLYNERVGACTLVAADSETVDRAFSQMKAAIRANYSNPPAHGASVVATILSNDALRAIWEQELTDMRQRIQRMRQLFVNTLQEKGANRDFSFIIKQNGMFSFSGLTKEQVLRLREEFGVYAVASGRVNVAGMTPDNMAPLCEAIVAVL [C180W], the unfolding free energy amounted to 25.5 kJ/mol.

Another series covers variants of B3. As to conditions: Homo sapiens; pH 7; Thermal; absorbance; Phosphate buffer; transition: 2; reversible: yes; whole UniProt chain shown.
As for MAGAGSAAVSGAGTPVAGPTGRDLFAEGLLEFLRPAVQQLDSHVHAVRESQVELREQIDNLATELSRINEDQKVALDLDPYVKKLLNARRRVVLVNNILQNAQERLRRLNHSVAKETARRRAMLDSGIYPPGSPGK [C66S], the melting temperature (Tm) amounted to 72.4 °C and the “change of melting temperature, mutant” value was 1.4 °C.

The series is the same for the next values; noted with them: Homo sapiens; pH 7.4; Thermal; CD; Tris 50 mM; whole UniProt chain shown.
MAGAGSAAVSGAGTPVAGPTGRDLFAEGLLEFLRPAVQQLDSHVHAVRESQVELREQIDNLATELSRINEDQKVALDLDPYVKKLLNARRRVVLVNNILQNAQERLRRLNHSVAKETARRRAMLDSGIYPPGSPGK [C66S]: the midpoint of thermal melting (Tm) was determined as 60.1 °C and the “change of melting temperature, mutant” value was 2.2 °C.

The next series covers variants of B4. As to conditions: Homo sapiens; Thermal; fluorescence; structure 6U07; whole UniProt chain shown.
MDCAEGRAANLPCNHSTISGNEYVYWYRQIHSQGPQYIIHGLKNNETNEMASLIITEDRKSSTLILPHATLRDTAVYYCIVYDYGQNFVFGPGTRLSVLPYIQNPDPAVYQLRDSKSSDKFVCLFTDFDSQTNVSQSKDSDVYITDKTVLDMRSMDFKSNSAVAWSNKSDFACANAFNNSIIPEDTFFPSPESSCDVKLVEKSFETDTNLNFQNLSVIGFRILLLKVAGFNLLMTLRLWSS [S121F]: the Tm is 58.5 °C and the “change of melting temperature, mutant” value worked out at 5.2 °C.

Turning to MDCAEGRAANLPCNHSTISGNEYVYWYRQIHSQGPQYIIHGLKNNETNEMASLIITEDRKSSTLILPHATLRDTAVYYCIVYDYGQNFVFGPGTRLSVLPYIQNPDPAVYQLRDSKSSDKSVCLFTDFDSQTNVSQSKDSDVYITDKTVLSMRSMDFKSNSAVAWSNKSDFACANAFNNSIIPEDTFFPSPESSCDVKLVEKSFETDTNLNFQNLSVIGFRILLLKVAGFNLLMTLRLWSS [D151S], the midpoint of thermal melting (Tm) stood at 53.3 °C and the “change of melting temperature, mutant” value was -1.6 °C.

For MDCAEGRAANLPCNHSTISGNEYVYWYRQIHSQGPQYIIHGLKNNETNEMASLIITEDRKSSTLILPHATLRDTAVYYCIVYDYGQNFVFGPGTRLSVLPYIQNPDPAVYQLRDSKSSDKSVCLFTDFDSQINVSQSKDSDVYITDKTVLDMRSMDFKSNSAVAWSNKSDFACANAFNNSIIPEDTFFPSPESSCDVKLVEKSFETDTNLNFQNLSVIGFRILLLKVAGFNLLMTLRLWSS [T132I], the midpoint of thermal melting (Tm) amounted to 55.7 °C and the “change of melting temperature, mutant” value stood at 0.8 °C.
